For this data set, the target named is T1, DEK (recombinant, baculovirus) (UniProt P35659 1-375).
T1 sequence: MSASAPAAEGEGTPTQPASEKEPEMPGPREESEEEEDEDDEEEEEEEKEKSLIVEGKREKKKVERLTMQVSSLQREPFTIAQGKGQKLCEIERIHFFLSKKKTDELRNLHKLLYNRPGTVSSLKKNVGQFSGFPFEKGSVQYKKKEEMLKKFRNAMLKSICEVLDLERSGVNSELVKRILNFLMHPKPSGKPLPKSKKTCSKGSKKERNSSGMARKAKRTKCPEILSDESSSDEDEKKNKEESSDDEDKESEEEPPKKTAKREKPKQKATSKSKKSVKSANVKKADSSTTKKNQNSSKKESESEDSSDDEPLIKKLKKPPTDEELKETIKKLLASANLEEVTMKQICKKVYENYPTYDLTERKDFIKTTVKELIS
The experiment in a line: pull-down, biotinylated aptamer on magnetic beads, immunoblot; two DEK concentrations, overnight 4 C; Selection and dot blot: 20 mM Tris pH 7.6, 100 mM NaCl, 5 mM MgCl2 (selection at room temperature; dot blot with 100 ug/ml salmon sperm DNA); pull-down: overnight at 4 C, PBS washes. Conditions: protein: recombinant; tags: His tag (SELEX resin); label: biotin (pull-down on magnetic beads). A general note: A western blot detects proteins with antibodies after separation by electrophoresis.

Here are results for one molecule from paper PMC5303823, “DEK-targeting DNA aptamers as therapeutics for inflammatory arthritis”.

B1: DTA-64 (ssDNA)
DNA: GGGGTTAAATATTCCCACATTGCCTGCGCCAGTACAAATAG
On to B1, for which the binding result is listed as “binds”.
